± gives the standard deviation of the averaged measurements.
Test: total protein half-life in vivo (active degradation + dilution); higher = more stable protein
[1] = E. coli NCM3722 delta-clpP delta-lon delta-hslV, growth: N-lim chemostat, doubling time 6 h
[2] = E. coli NCM3722 delta-clpP, growth: N-lim chemostat, doubling time 6 h
[3] = E. coli NCM3722 delta-hslV, growth: N-lim chemostat, doubling time 6 h
[4] = E. coli NCM3722 delta-lon, growth: N-lim chemostat, doubling time 6 h
[5] = E. coli NCM3722 delta-smpB, growth: N-lim chemostat, doubling time 6 h
[6] = wild type E. coli NCM3722, growth: C-lim chemostat, doubling time 3 h
[7] = wild type E. coli NCM3722, growth: C-lim chemostat, doubling time 6 h
[8] = wild type E. coli NCM3722, growth: C-lim chemostat, doubling time 12 h
[9] = wild type E. coli NCM3722, growth: N-lim chemostat, doubling time 6 h
[10] = wild type E. coli NCM3722, growth: N-lim chemostat, doubling time 12 h
[11] = wild type E. coli NCM3722, growth: P-lim chemostat, doubling time 6 h
[12] = wild type E. coli NCM3722, growth: P-lim chemostat, doubling time 12 h

| Sequence | total protein half-life in vivo [1] | total protein half-life in vivo [2] | total protein half-life in vivo [3] | total protein half-life in vivo [4] | total protein half-life in vivo [5] | total protein half-life in vivo [6] | total protein half-life in vivo [7] | total protein half-life in vivo [8] | total protein half-life in vivo [9] | total protein half-life in vivo [10] | total protein half-life in vivo [11] | total protein half-life in vivo [12] |
| --- | --- | --- | --- | --- | --- | --- | --- | --- | --- | --- | --- | --- |
| MSTVTITDLARENVRNLTPYQSARRLGGNGDVWLNANEYPTAVEFQLTQQTLNRYPECQPKAVIENYAQYAGVKPEQVLVSRGADEGIELLIRAFCEPGKDAILYCPPTYGMYSVSAETIGVECRTVPTLDNWQLDLQGISDKLDGVKVVYVCSPNNPTGQLINPQDFRTLLELTRGKAIVVADEAYIEFCPQASLAGWLAEYPHLAILRTLSKAFALAGLRCGFTLANEEVINLLMKVIAPYPLSTPVADIAAQALSPQGIVAMRERVAQIIAEREYLIAALKEIPCVEQVFDSETNYILARFKASSAVFKSLWDQGIILRDQNKQPSLSGCLRITVGTREESQRVIDALRAEQV | 3.92 ± 0.55 h | 3.15 ± 0.066 h | 3.41 ± 0.045 h | 3.73 ± 0.54 h | 3.535 ± 0.032 h | 3.02 ± 0.27 h | 5.38 ± 0.12 h | 9.87 ± 1.3 h | 3.247 ± 0.012 h | 4.98 ± 0.15 h | 5.32 ± 0.39 h | 10.9 ± 0.23 h |
| MSVENIVNINESNLQQVLEQSMTTPVLFYFWSERSQHCLQLTPILESLAAQYNGQFILAKLDCDAEQMIAAQFGLRAIPTVYLFQNGQPVDGFQGPQPEEAIRALLDKVLPREEELKAQQAMQLMQESNYTDALPLLKDAWQLSNQNGEIGLLLAETLIALNRSEDAEAVLKTIPLQDQDTRYQGLVAQIELLKQAADTPEIQQLQQQVAENPEDAALATQLALQLHQVGRNEEALELLFGHLRKDLTAADGQTRKTFQEILAALGTGDALASKYRRQLYALLY | 4.51 ± 0.3 h | 4.61 ± 0.092 h | 5.26 ± 0.61 h | 6.044 ± 0.054 h | 4.75 ± 0.35 h | 3.1 ± 0.24 h | 6.038 ± 0.01 h | 11 ± 0.52 h | 5.25 ± 0.16 h | 8.64 ± 0.25 h | 5.31 ± 0.12 h | 11.9 ± 0.69 h |
| MSVIGRIHSFESCGTVDGPGIRFITFFQGCLMRCLYCHNRDTWDTHGGKEVTVEDLMKEVVTYRHFMNASGGGVTASGGEAILQAEFVRDWFRACKKEGIHTCLDTNGFVRRYDPVIDELLEVTDLVMLDLKQMNDEIHQNLVGVSNHRTLEFAKYLANKNVKVWIRYVVVPGWSDDDDSAHRLGEFTRDMGNVEKIELLPYHELGKHKWVAMGEEYKLDGVKPPKKETMERVKGILEQYGHKVMF [P0A9N4] | 4.86 ± 0.073 h | 5.05 ± 1.6 h | 5.08 ± 0.1 h | 4.485 ± 0.029 h | 3.9 ± 0.28 h | 2.9 ± 0.1 h | 5.48 ± 1 h | 9.78 ± 0.27 h | 4.41 ± 0.36 h | 6.62 ± 0.36 h | 4.78 ± 0.3 h | 10.1 ± 0.91 h |
| MSVIIVGGGMAGATLALAISRLSHGALPVHLIEATAPESHAHPGFDGRAIALAAGTCQQLARIGVWQSLADCATAITTVHVSDRGHAGFVTLAAEDYQLAALGQVVELHNVGQRLFALLRKAPGVTLHCPDRVANVARTQSHVEVTLESGETLTGRVLVAADGTHSALATACGVDWQQEPYEQLAVIANVATSVAHEGRAFERFTQHGPLAMLPMSDGRCSLVWCHPLERREEVLSWSDEKFCRELQSAFGWRLGKITHAGKRSAYPLALTHAARSITHRTVLVGNAAQTLHPIAGQGFNLGMRDVMSLAETLTQAQERGEDMGDYGVLCRYQQRRQSDREATIGVTDSLVHLFANRWAPLVVGRNIGLMTMELFTPARDVLAQRTLGWVAR | 5.61 ± 0.23 h | 4.77 ± 0.24 h | 6.05 ± 2.4 h | 3.69 ± 0.053 h | 4.23 ± 0.17 h | 2.72 ± 0.17 h | 4.42 ± 0.18 h | 6.83 ± 0.21 h | 4.24 ± 1.1 h | 9.5 h | 2.82 ± 0.096 h | 4.59 ± 0.42 h |
| MSVKIVIKPNTYFDSVSLMSISTRANKLDGVEQAFVAMATEMNKGVLKNLGLLTPELEQAKNGDLMIVINGKSGADNEQLLVEIEELFNTKAQSGSHEARYATIGSAKKHIPESNLAVISVNGLFAAREARQALQNDLNVMLFSDNVSVEDELALKQLAHEKGLLMMGPDCGTAIINGAALCFGNAVRRGNIGIVGASGTGSQELSVRIHEFGGGVSQLIGTGGRDLSEKIGGLMMLDAIGMLENDPQTEIIALISKPPAPAVARKVLERARACRKPVVVCFLDRGETPVDEQGLQFARGTKEAALKAVMLSGVKQENLDLHTLNQPLIADVRARLQPQQKYIRGLFCGGTLCDETMFAVMEKHGDVYSNIQPDPEFRLKDINRSIKHTFLDFGDDDFTNGKPHPMIDPTNRISRLIEEARDPEVAVIVMDFVLGFGSHEDPVGSTIETIKEAKAIAAAEGRELIILAYVLGTDLDTPSLEQQSQMLLDAGVILASSSTNTGLLAREFICKGEEA | 4.99 h | 6.9 h | 3.51 h | 3.92 h | 3.47 ± 0.37 h | 3.06 h | 4.99 ± 0.41 h | 4.892 ± 0.0075 h | 5.14 h | 8.02 ± 1.4 h | 4.47 h | 7.02 h |
| MSVKVIVTDMDGTFLNDAKTYNQPRFMAQYQELKKRGIKFVVASGNQYYQLISFFPELKDEISFVAENGALVYEHGKQLFHGELTRHESRIVIGELLKDKQLNFVACGLQSAYVSENAPEAFVALMAKHYHRLKPVKDYQEIDDVLFKFSLNLPDEQIPLVIDKLHVALDGIMKPVTSGFGFIDLIIPGLHKANGISRLLKRWDLSPQNVVAIGDSGNDAEMLKMARYSFAMGNAAENIKQIARYATDDNNHEGALNVIQAVLDNTSPFNS | 5.01 ± 0.82 h | 4.02 ± 0.23 h | 4.38 ± 0.48 h | 4.38 ± 0.34 h | 3.98 ± 0.12 h | 3.71 ± 0.2 h | – | 12.38 ± 0.075 h | 4.31 ± 0.45 h | 6.96 ± 0.49 h | 6.13 ± 0.23 h | – |

Reference: the supplement of paper PMC11246515
